The source of these data is patent publication US20210371525A1.

For the assay, the target named is CD277 (BTN3A1) on Jeko-1 cells (UniProt O00481). The assay can be described thus: cell-based or functional assay.
Chain of CD277 (BTN3A1) on Jeko-1 cells (O00481 30-513 limits assumed): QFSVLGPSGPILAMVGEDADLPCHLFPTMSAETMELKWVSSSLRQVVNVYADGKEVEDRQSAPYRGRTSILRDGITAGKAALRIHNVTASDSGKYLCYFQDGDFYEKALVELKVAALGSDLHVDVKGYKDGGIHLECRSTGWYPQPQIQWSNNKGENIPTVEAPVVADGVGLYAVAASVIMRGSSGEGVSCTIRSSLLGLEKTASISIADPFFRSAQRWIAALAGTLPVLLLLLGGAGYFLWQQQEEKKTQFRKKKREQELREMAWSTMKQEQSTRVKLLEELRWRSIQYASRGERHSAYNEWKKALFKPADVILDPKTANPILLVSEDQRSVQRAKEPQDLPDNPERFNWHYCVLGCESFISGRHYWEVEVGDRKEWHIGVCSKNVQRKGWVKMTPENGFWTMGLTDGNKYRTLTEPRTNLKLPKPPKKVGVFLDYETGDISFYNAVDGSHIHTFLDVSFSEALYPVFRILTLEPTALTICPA

B1: human Vγ9Vδ2-TCR on cultured Vγ9Vδ2-T cells (TCR, V domains shown)
V domain 1: AGHLEQPQISSTKTLSKTARLECVVSGITISATSVYWYRERPGEVIQFLVSISYDGTVRKESGIPSGKFEVDRIPETSTSTLTIHNVEKQDIATYYCALWEAQQELGKKIKVFGPGTKLIITD
V domain 2: AIELVPEHQTVPVSIGVPATLRCSMKGEAIGNYYINWYRKTQGNTMTFIYREKDIYGPGFKDNFQGDIDIAKNLAVLKILAPSERDEGSYYCACDTLGMGGEYTDKLIFGKGTRVTVEP
In turn, B1 had a decrease of 1D7-5C8-induced lysis of Jeko-1 cells with anti-CD277 mAb 103.2 (10 µg/mL) of 11.4% and a specific lysis of Jeko-1 cells at 10 pM 1D7-5C8 with anti-CD277 mAb 103.2 (10 µg/mL) of 18.2%.
